Measurements from paper PMC2621353, “Residues Clustered in the Light-Sensing Knot of Phytochrome B are Necessary for Conformer-Specific Binding to Signaling Partner PIF3” (PLoS Genetics, 2009).

B1: full-length phytochrome B (phyB), wild type, in vitro translated [modified: 35S-methionine labelled; 35S-methionine labelled] [Arabidopsis thaliana] / GAD-PIF3, in vitro translated [modified: 35S-methionine labelled … (parent)
chain 1: MVSGVGGSGGGRGGGRGGEEEPSSSHTPNNRRGGEQAQSSGTKSLRPRSNTESMSKAIQQYTVDARLHAVFEQSGESGKSFDYSQSLKTTTYGSSVPEQQITAYLSRIQRGGYIQPFGCMIAVDESSFRIIGYSENAREMLGIMPQSVPTLEKPEILAMGTDVRSLFTSSSSILLERAFVAREITLLNPVWIHSKNTGKPFYAILHRIDVGVVIDLEPARTEDPALSIAGAVQSQKLAVRAISQLQALPGGDIKLLCDTVVESVRDLTGYDRVMVYKFHEDEHGEVVAESKRDDLEPYIGLHYPATDIPQASRFLFKQNRVRMIVDCNATPVLVVQDDRLTQSMCLVGSTLRAPHGCHSQYMANMGSIASLAMAVIINGNEDDGSNVASGRSSMRLWGLVVCHHTSSRCIPFPLRYACEFLMQAFGLQLNMELQLALQMSEKRVLRTQTLLCDMLLRDSPAGIVTQSPSIMDLVKCDGAAFLYHGKYYPLGVAPSEVQIKDVVEWLLANHADSTGLSTDSLGDAGYPGAAALGDAVCGMAVAYITKRDFLFWFRSHTAKEIKWGGAKHHPEDKDDGQRMHPRSSFQAFLEVVKSRSQPWETAEMDAIHSLQLILRDSFKESEAAMNSKVVDGVVQPCRDMAGEQGIDELGAVAREMVRLIETATVPIFAVDAGGCINGWNAKIAELTGLSVEEAMGKSLVSDLIYKENEATVNKLLSRALRGDEEKNVEVKLKTFSPELQGKAVFVVVNACSSKDYLNNIVGVCFVGQDVTSQKIVMDKFINIQGDYKAIVHSPNPLIPPIFAADENTCCLEWNMAMEKLTGWSRSEVIGKMIVGEVFGSCCMLKGPDALTKFMIVLHNAIGGQDTDKFPFPFFDRNGKFVQALLTANKRVSLEGKVIGAFCFLQIPSPELQQALAVQRRQDTECFTKAKELAYICQVIKNPLSGMRFANSLLEATDLNEDQKQLLETSVSCEKQISRIVGDMDLESIEDGSFVLKREEFFLGSVINAIVSQAMFLLRDRGLQLIRDIPEEIKSIEVFGDQIRIQQLLAEFLLSIIRYAPSQEWVEIHLSQLSKQMADGFAAIRTEFRMACPGEGLPPELVRDMFHSSRWTSPEGLGLSVCRKILKLMNGEVQYIRESERSYFLIILELPVPRKRPLSTASGSGDMMLMMPY
chain 2: MPLFELFRLTKAKLESAQDRNPSPPVDEVVELVWENGQISTQSQSSRSRNIPPPQANSSRAREIGNGSKTTMVDEIPMSVPSLMTGLSQDDDFVPWLNHHPSLDGYCSDFLRDVSSPVTVNEQESDMAVNQTAFPLFQRRKDGNESAPAASSSQYNGFQSHSLYGSDRARDLPSQQTNPDRFTQTQEPLITSNKPSLVNFSHFLRPATFAKTTNNNLHDTKEKSPQSPPNVFQTRVLGAKDSEDKVLNESVASATPKDNQKACLISEDSCRKDQESEKAVVCSSVGSGNSLDGPSESPSLSLKRKHSNIQDIDCHSEDVEEESGDGRKEAGPSRTGLGSKRSRSAEVHNLSERRRRDRINEKMRALQELIPNCNKVDKASMLDEAIEYLKSLQLQVQIMSMASGYYLPPAVMFPPGMGHYPAAAAAMAMGMGMPYAMGLPDLSRGGSSVNHGPQFQVSGMQQQPVAMGIPRVSGGGIFAGSSTIGNGSTRDLSGSKDQTTTNNNSNLKPIKRKQGSSDQFCGSS

Variants of: B1
Experiment: in vitro co-immunoprecipitation
Details: with GAD-PIF3, in vitro translated [modified: 35S-methionine labelled, GAD-PIF3 as bait, phyB as prey, 35S-met in vitro translated proteins
[1] = phyB in Pfr form, parent: 3.8, read off a plot
[2] = phyB in Pr form, parent: 1, read off a plot
[3] = phyB in Pfr form, parent: 9.1, read off a plot
[4] = phyB in Pfr form, parent: 13, read off a plot
[5] = phyB in Pfr form, parent: 17, read off a plot

Variant	screen value (relative to wild-type phyB Pr = 1) [1]	screen value (relative to wild-type phyB Pr = 1) [2]	screen value (relative to wild-type phyB Pr = 1) [3]	screen value (relative to wild-type phyB Pr = 1) [4]	screen value (relative to wild-type phyB Pr = 1) [5]
chain 1 C119Y	0.9	0.45	–	–	–
chain 1 R415W	0.58	0.45	–	–	–
chain 1 S134G	–	1.6	3.1	–	–
chain 1 P411L	–	1	4.1	–	–
chain 1 G348D	–	1	–	2.6	–
chain 1 S343Y	–	1.4	–	1.7	–
chain 1 V264E	–	2	–	1.9	–
chain 1 L256C	–	1	–	2.8	–
chain 1 I308T	–	1	–	–	2.3
chain 1 V273L	–	2	–	–	3.9
chain 1 C345R	–	2	–	–	5.1
chain 1 S367P	–	2.4	–	–	4.8
